# Laboratory results published in patent US20120064547A1 (PROBIODRUG, published 2012).
# Where no end group is shown, it is not given here. Side-chain parts run from the residue outwards. [ ]: non-standard residue; d: D form. SMPH = maleimide crosslinker coupling C-terminal Cys to BSA; pGlu = O=C1CC[C@@H](C(=O)O)N1
# T1: Orexin A (human, UniProt O43612 34-66, limits assumed, N-terminal pyroglutamate (pGlu peptide))
# T1 construct: Whole peptide or N-terminal region
# T1 peptide (looked up): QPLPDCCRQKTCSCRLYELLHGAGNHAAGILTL
# T2: Gonadoliberin (human, UniProt P01148 24-33, N-terminal pyroglutamate (pGlu peptide))
# T2 construct: Whole peptide or N-terminal region
# T2 peptide (looked up): QHWSYGLRPG
# T3: MCP-2 (human, UniProt P80075 24-99, limits assumed, N-terminal pyroglutamate (pGlu peptide))
# T3 construct: Whole peptide or N-terminal region
# T3 sequence (peptide, looked up): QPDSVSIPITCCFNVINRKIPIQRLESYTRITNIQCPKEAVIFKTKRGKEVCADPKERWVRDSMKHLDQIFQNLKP
# T4: Big Gastrin (human, UniProt P01350 59-92, limits assumed, N-terminal pyroglutamate (pGlu peptide))
# T4 construct: Whole peptide or N-terminal region
# T4 peptide (looked up): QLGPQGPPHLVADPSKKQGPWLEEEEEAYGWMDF
# T5: BSA-pGlu-6166 peptide (pGlu-FRHDSGC conjugated to bovine serum albumin)
# T5 construct: also called N3pE-BSA
# T5 peptide: [pGlu]FRHDSGC([SMPH-BSA])
# T6: PepSpot peptide No. 5 EFRHDSGYEVHHQ
# T6 construct: Spotted on a PepSpot membrane; also called spot number 5
# T6 peptide: EFRHDSGYEVHHQ
# T7: PepSpot peptide No. 6 pEFRHDSGYEVHHQ
# T7 construct: Spotted on a PepSpot membrane; also called spot number 6; the specific Aβ N3pE-x spot
# T7 peptide: [pGlu]FRHDSGYEVHHQ
# T8: PepSpot peptide No. 7 FRHDSGYEVHHQK
# T8 construct: Spotted on a PepSpot membrane; also called spot number 7
# T8 peptide: FRHDSGYEVHHQK
# B1: Aβ 24-2-3 (monoclonal antibody of hybridoma cell line 24-2-3, DSM ACC 2926) (antibody, V domains shown)
# VH: QVQLQQSGAELVRPGSSVKISCKASGYIFNNYWINWVKQRPGQGLEWIGQIYPGDGDTNYNGKFKGKATLTADKSSSTAYMQLSSLTSEDSAVYFCAREGYIVYWGQGTLVTVSA
# VL: not shown
# notes: Mouse hybridoma IgG; The entries as printed begin with a leader and end with the first residues of the constant region; Heavy chain amplified with primer MHCG2b, light chain with MKC; Tested as supernatant and as purified antibody; also called clone 24-2-3; N3pE antibody clone 24-2-3
# B2: Aβ 17-4-3 (monoclonal antibody of hybridoma cell line 17-4-3, DSM ACC 2925) (antibody, V domains shown)
# VH: EVKLVESGGGLVQPGGSRKLSCAASGFTFSDYGMAWVRQAPGKGPEWVAFISNLAYSIYYADTVTGRFTISRENAKNTLYLEMSSLRSEDTAMYYCARYDYDNILDYVMDYWGQGTSVTVSS
# VL: DVVMTQTPLSLPVSLGDQASISCRSSQSLVHSDGNTYLHWYLQKPGQSPKLLIYKVSNRFSGVPDRFSGSGSGTDFTLKISRVEAEDLGVYFCSQSTHVPPTFGGGTKLEIKR
# notes: Mouse hybridoma IgG; The entries as printed begin with a leader and end with the first residues of the constant region; Heavy chain amplified with primer MHCG2b, light chain with MKC; Tested as hybridoma culture supernatant; also called clone 17-4-3; antibody 17-4-3
# B3: Aβ 5-5-6 (monoclonal antibody of hybridoma cell line 5-5-6, DSM ACC 2923) (antibody, V domains shown)
# VH: EVQLQQSGPELVKPGASMKISCKASGYSFTGYTMNWVKQSHGKNLEWIGLINPYSGVTRYNQKFKGKATLIVDKSSSTAYMELLSLTSEDSAVYYCTREAKREWDETYWGQGTLVTVSA
# VL: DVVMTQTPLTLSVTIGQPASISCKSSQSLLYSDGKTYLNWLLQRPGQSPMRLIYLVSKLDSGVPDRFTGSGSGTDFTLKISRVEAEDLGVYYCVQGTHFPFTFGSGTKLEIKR
# notes: Mouse hybridoma IgG; The entries as printed begin with a leader and end with the first residues of the constant region; Heavy chain amplified with primer MHCG1, light chain with MKC; Tested as hybridoma culture supernatant; also called clone 5-5-6; antibody 5-5-6
# How the values were obtained:
# Neurotensin = biological target: T9, Neurotensin (human, UniProt P30990 151-163, N-terminal pyroglutamate (pGlu peptide)); assay: SPR (Biacore 3000), peptide on CM5 chip, antibody 25 µg/ml
# T9 construct: Whole peptide or N-terminal region
# Method: (§1) Beside different Aβ species also the cross reactivity to other pGlu-Peptide, which occur in the human body, was determined. This was made by surface plasmon resonance. Following peptides or there N-terminal region of them were immobilized on the surface of CM5-Chips:
# (§2) MCP1, MCP2, big gastrin, gonadoliberin, neurotensin, orexin A, fibronectin, collagen 1 and TRH. As positive control also the binding to AβpE3-40 was analyzed. […] For every interaction of the antibody with the different peptides the association and dissociation was recorded. The cross reactivity was determined by evaluation of the association phase concerning rate and signal at the end. The values for all pGlu-Peptides compared with the signal for AβpE3-40.
# (§3) The sensograms of the pGlu peptides were compared with the sensogram for AβpE3-40.
# MCP-1 = MCP-1 (human, UniProt P13500 24-99, limits assumed, N-terminal pyroglutamate (pGlu peptide)); assay: as above
# Method: as §1, §2, §3
# Orexin A = biological target: T1, Orexin A; assay: as above
# Method: as §1, §2, §3
# Gonadoliberin = biological target: T2, Gonadoliberin; assay: as above
# Method: as §1, §2, §3
# MCP-2 = biological target: T3, MCP-2; assay: as above
# Method: as §1, §2, §3
# Big Gastrin = biological target: T4, Big Gastrin; assay: as above
# Method: as §1, §2, §3
# N11pE-BSA = assay: IgG ELISA, hybridoma supernatant on peptide-BSA coat
# Method: (§4) An IgG directed ELISA was used to screen the cell culture supernatant. […] 100 μl undiluted cell culture supernatant was added to each well and incubated for 1 h at RT. Supernatant from SP2/0 cells was used as negative control. Supernatant from the spleen cells was used as positive control.
# N3E-BSA = assay: as above
# Method: as §4
# [1] = biological target: T5, BSA-pGlu-6166 peptide (pGlu-FRHDSGC …); assay: as above
# Method: as §4
# isoDAE-BSA = assay: as above
# Method: as §4
# Aβ N3pE-40 peptide [2] = biological target: T10, Aβ N3pE-40 peptide (N-terminal Glu (position 3 of Aβ) cyclized to pyroglutamate); assay: SPR Biacore 3000, AβpE3-40 on CM5 chip, bivalent analyte model
# T10 construct: Synthetic peptide; also called AβpE3-40; amyloid β N3pE-40
# Method: The affinity was determined using a Biacore 3000 with CM5-Chip, on which AβpE3-40 was immobilized. The system was run with 30 μl/min. Measured bulk effects and unspecific binding to the chip surface were corrected by subtraction of the signal of flow cell 4, at which AβpE3-40 was immobilized, and the empty flow cell 3. The association (10 min) was obtained by injection of 300 μl of each concentration. The dissociation was observed over 10 min. Remaining antibody molecules were removed by injection of 5 μl 0.1 M HCL. For every antibody concentration the association and dissociation was recorded. The determination of the association and dissociation rate and the dissociation constant was performed by a global simultaneously fit of association and dissociation phase for all recorded antibody concentrations using the “Bivalent analyte” model.
# [3] = biological target: T6, PepSpot peptide No. 5 EFRHDSGYEVHHQ; assay: PepSpot peptide membrane
# [4] = biological target: T7, PepSpot peptide No. 6 pEFRHDSGYEVHHQ; assay: PepSpot peptide membrane
# [5] = biological target: T8, PepSpot peptide No. 7 FRHDSGYEVHHQK; assay: PepSpot peptide membrane
# N11E-BSA = assay: IgG ELISA, hybridoma supernatant on peptide-BSA coat
# Method: as §4
# Aβ N3pE-40 peptide [6] = biological target: T10, Aβ N3pE-40 peptide; assay: SPR (Biacore, CM5 chip with coupled Aβ N3pE-40), overlay of hybridoma supernatants. The sheet carries the label Figure 6, but its content is that of the legend of FIG. 5
Binder,% cross reactivity (against AβpE3-40) (Neurotensin) [%],% cross reactivity (against AβpE3-40) (MCP-1) [%],% cross reactivity (against AβpE3-40) (Orexin A) [%],% cross reactivity (against AβpE3-40) (Gonadoliberin) [%],% cross reactivity (against AβpE3-40) (MCP-2) [%],% cross reactivity (against AβpE3-40) (Big Gastrin) [%],signal in ELISA (OD) (N11pE-BSA) [OD 405 nm],signal in ELISA (OD) (N3E-BSA) [OD 405 nm],signal in ELISA (OD) [1] [OD 405 nm],signal in ELISA (OD) (isoDAE-BSA) [OD 405 nm],Kd (Aβ N3pE-40 peptide [2]) [nM],binding result [3],binding result [4],binding result [5],signal in ELISA (OD) (N11E-BSA) [OD 405 nm],binding result (Aβ N3pE-40 peptide [6])
B1,< 1,< 1,< 1,< 1,< 1,< 1,0.002,0.218,1.77,0.014,101,binds,binds,binds,,
B2,,,,,,,0.004,0.32,1.92,0.007,,binds,binds,binds,0.003,binds
B3,,,,,,,0.006,0.126,1.65,0.015,,binds,binds,binds,0.004,binds
